In patent US20170305994A1 (Novo Nordisk, published 2017):

Columns and labels:
[1] = target: T1, human DR3 (full length, on cells) (human, UniProt Q93038 25-417); test: cell-based or functional assay
T1 sequence: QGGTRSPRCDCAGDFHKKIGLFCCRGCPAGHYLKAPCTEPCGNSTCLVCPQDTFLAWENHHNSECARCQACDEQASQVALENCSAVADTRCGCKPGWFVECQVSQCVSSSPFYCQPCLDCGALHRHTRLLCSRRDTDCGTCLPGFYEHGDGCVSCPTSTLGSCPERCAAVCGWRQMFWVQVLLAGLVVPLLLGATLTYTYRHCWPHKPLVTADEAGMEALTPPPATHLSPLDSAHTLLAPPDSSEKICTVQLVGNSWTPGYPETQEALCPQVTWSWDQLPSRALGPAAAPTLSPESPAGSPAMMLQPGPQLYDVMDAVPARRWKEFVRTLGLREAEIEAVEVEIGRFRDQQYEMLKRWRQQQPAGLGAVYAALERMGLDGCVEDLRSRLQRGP

[2] = target: T2, human DR3 with the death domain deleted (ΔM339-P417 of SEQ ID NO:1), expressed on CHOK1SV cells (human, UniProt Q93038 25-338); test: flow cytometry competition: Fab vs TL1A on hDR3-expressing CHO cells
T2 construct: also called truncated DR3; hDR3 expressing CHO cells
T2 sequence: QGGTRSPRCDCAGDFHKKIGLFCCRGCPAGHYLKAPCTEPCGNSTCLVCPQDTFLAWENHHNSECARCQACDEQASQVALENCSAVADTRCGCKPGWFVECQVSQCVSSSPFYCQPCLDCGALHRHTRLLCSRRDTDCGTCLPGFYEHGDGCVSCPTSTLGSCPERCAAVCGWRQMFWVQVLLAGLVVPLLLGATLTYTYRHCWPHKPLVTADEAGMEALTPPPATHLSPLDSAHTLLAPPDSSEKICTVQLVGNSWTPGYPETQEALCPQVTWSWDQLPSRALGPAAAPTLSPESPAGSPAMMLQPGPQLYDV

[3] = target: T1, human DR3 (full length, on cells); test: cell-based or functional assay; remark: listed apart in the source
[4] = target: T3, human DR3 I43N/L45V (human, UniProt Q93038 25-417); test: cell-based or functional assay
T3 chain: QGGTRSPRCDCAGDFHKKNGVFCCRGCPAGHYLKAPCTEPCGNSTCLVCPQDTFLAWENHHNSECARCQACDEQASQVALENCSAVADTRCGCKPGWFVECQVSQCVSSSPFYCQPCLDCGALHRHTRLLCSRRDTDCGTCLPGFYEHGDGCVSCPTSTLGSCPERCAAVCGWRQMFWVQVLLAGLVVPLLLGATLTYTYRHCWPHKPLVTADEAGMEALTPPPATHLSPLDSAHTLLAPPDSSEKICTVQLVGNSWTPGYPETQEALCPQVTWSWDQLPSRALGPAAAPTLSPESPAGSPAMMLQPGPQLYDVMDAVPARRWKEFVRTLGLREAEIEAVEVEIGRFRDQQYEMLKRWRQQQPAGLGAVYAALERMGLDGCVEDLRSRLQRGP

[5] = target: T4, human DR3 R29Q (human, UniProt Q93038 25-417); test: cell-based or functional assay
T4 sequence: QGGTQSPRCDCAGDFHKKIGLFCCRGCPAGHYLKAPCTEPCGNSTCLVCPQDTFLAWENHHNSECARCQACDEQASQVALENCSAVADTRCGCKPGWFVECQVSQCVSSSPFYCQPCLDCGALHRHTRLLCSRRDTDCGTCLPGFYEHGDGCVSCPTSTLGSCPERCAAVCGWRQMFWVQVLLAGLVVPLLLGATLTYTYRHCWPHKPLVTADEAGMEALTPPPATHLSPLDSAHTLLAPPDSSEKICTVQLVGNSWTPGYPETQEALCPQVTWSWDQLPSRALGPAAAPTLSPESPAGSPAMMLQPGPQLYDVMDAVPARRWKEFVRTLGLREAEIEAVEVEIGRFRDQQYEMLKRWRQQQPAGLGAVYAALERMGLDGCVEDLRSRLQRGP

[6] = target: T5, human DR3 I43N (human, UniProt Q93038 25-417); test: cell-based or functional assay
T5 sequence: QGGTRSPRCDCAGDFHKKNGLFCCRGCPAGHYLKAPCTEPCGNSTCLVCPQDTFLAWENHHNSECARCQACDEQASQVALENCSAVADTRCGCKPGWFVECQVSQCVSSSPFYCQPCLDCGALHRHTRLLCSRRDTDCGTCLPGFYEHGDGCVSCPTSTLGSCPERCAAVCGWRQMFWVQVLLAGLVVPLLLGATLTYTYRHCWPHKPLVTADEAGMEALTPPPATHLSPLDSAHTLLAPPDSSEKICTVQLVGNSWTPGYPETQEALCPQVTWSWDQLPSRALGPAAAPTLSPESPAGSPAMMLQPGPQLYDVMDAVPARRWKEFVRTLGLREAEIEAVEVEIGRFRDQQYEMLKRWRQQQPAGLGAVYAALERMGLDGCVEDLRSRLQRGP

[7] = target: T6, human DR3 L45V (human, UniProt Q93038 25-417); test: cell-based or functional assay
T6 sequence: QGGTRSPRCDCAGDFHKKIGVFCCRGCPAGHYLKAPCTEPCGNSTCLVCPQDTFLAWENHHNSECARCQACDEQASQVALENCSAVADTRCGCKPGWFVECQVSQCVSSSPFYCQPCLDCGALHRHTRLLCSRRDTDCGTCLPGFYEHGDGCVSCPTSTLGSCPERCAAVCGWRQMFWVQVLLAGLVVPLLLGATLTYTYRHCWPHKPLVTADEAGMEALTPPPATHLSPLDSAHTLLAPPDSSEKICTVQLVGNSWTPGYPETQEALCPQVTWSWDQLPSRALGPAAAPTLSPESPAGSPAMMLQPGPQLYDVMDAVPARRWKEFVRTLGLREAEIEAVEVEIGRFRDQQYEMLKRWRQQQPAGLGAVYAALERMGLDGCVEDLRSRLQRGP

[8] = target: T1, human DR3 (full length, on cells); test: cell-based or functional assay; remark: listed apart in the source

B1: 0228 (humanized Fab of 27F44, IgG4, hz0072VH S49A / hz0072VL) (Fab, V domains shown)
VH: EVQLVESGGGLVQPGGSLRLSCAASGFTFSNYDMSWVRQATGKGLEWVAAFSSDGYTFYPGSVKGRFTISRENAKNSLYLQMNSLRAGDTAVYYCARHADYANYPVMDYWGQGTLVTVSS
VL: DIQMTQSPSSLSASVGDRVTITCRASKSVSTSGYSYMHWYQQKPGKAPKLLIYLASNLESGVPSRFSGSGSGTDFTLTISSLQPEDFATYYCQHSRELPLTFGGGTKVEIKR
notes: IgG4-Cys, hz (humanized IgG4 Fab with the hinge cysteine kept)
[1]
  IC50 at 40 ng/ml TL1A, transient reporter HEK293: 355 pM
[2]
  IC50: 484 pM
  max percentage inhibition: 78%
[3]
  IC50 at 40 ng/ml TL1A, I5 reporter cells: 320 pM
[4]
  IC50 of Fab upon stimulation by TL1A, transient reporter: 149000 pM
[5]
  IC50 of Fab upon stimulation by TL1A, transient reporter: 372 pM
[6]
  IC50 of Fab upon stimulation by TL1A, transient reporter: 68000 pM
[7]
  IC50 of Fab upon stimulation by TL1A, transient reporter: 2000 pM
[8]
  IC50 of Fab upon stimulation by TL1A, transient reporter: 645 pM
